The target in one test is hBTLA expressed on cells (human, UniProt Q7Z6A9 31-289). In words: cell-based or functional assay.
The next test deals with T1, human C1q (human, UniProt P02745 23-245; P02746 28-253; P02747 29-245).
T1 construct: also called C1q protein
In words: C1q binding assay, method not described (Table 18: 'Non-specific binding').

Test [1] has as its target T2, recombinant human FcγRIIA (CD32a) R167 (human, UniProt P12318 36-218).
T2 sequence (looked up): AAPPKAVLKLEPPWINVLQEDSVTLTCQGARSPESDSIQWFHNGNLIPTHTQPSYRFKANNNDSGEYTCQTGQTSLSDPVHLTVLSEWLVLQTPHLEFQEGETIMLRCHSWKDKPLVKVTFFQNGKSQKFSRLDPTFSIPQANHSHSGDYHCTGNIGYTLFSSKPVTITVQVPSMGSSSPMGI
Briefly: SPR, Biacore T200; Fc receptor captured on anti-His antibody, antibody injected. From the text:
(§1) ADCC is initiated when an antibody binds to a cell surface target protein and then links to an Fc γ receptor (FcγR) expressed on effector cells. […] In conjunction with ADCC, CDC is activated when antibodies cross-link the cell surface target and C1q protein, followed by a cascade reaction of complement complex formation and target cell lysis. As a proxy for ADCC and CDC, the detection of antibody binding to FcγR and C1q may serve as basic indicators of ADCC and CDC. Thus, in the present invention, the kinetic binding affinity of monoclonal antibodies for major FcγRs was evaluated using biacore T200 (GE).
(§2) Anti-His antibody (GE) was immobilized on the sensor wafer. Various Fc receptors, including recombinant human FcγRIIIA (CD16a) V176, recombinant human FcγRIIA (CD32a) R167, recombinant human FcγRI (CD64) and recombinant human FcRn were captured, then a series of diluted recombinant human anti-BTLA antibodies (i.e., hu18) were injected, and the binding properties of the interactions were assayed and analyzed. hu18 is an IgG4 subtype, and hu18-IgG1 is an IgG1 subtype that shares the same Fab as hu18 and serves as a positive control.
(In general: SPR reads the build-up and loss of mass on a sensor chip optically.)

In test [2] the target is recombinant human FcγRI (CD64) (human, UniProt P12314 16-288). The test is described as above.
Text: as §1, §2

In test [3] the target is recombinant human FcγRIIIA (CD16a) V176 (human, UniProt P08637 17-208). The description is as above.
Text: as §1, §2

The target of another test is T3, recombinant human FcRn (human, UniProt P55899 24-297; P61769 21-119).
T3 construct: Captured on an anti-His antibody
Described as above.
Text: as §1, §2

In the next test the target is T4, murine BTLA (murine, UniProt Q7TSA3 30-183, limits assumed).
T4 sequence (looked up): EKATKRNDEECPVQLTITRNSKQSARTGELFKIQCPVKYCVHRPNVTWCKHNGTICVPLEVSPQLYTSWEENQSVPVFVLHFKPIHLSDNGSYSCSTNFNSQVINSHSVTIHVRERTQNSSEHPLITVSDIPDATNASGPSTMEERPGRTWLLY
In words: OD 450 nm against log ng/mL of antibody (ELISA-type readout as drawn; Example 11 describes a Fortebio/SPR chip assay with BTLA coupled to the chip).

Changes are numbered by the printed parent chain.

Chain of recombinant human FcγRI (CD64) (P12314 16-288 limits assumed): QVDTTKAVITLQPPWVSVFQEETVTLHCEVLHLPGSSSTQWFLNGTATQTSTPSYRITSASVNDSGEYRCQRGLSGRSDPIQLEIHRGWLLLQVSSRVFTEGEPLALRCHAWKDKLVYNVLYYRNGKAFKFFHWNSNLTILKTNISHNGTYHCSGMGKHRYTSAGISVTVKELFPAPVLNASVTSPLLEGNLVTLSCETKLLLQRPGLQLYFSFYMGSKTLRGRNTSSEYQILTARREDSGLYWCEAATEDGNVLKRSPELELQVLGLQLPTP
T3 sequence (P55899 24-297 limits assumed, form in doubt, chain 1 of 2): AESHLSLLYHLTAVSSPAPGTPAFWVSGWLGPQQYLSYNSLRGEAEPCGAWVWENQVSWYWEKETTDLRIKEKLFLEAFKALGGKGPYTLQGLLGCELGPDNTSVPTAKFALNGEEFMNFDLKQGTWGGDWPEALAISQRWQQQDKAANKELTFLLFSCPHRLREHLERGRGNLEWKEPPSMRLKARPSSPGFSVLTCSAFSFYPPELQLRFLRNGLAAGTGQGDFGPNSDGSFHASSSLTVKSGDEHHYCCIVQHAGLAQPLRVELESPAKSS
T3 sequence (P61769 21-119 limits assumed, form in doubt, chain 2 of 2): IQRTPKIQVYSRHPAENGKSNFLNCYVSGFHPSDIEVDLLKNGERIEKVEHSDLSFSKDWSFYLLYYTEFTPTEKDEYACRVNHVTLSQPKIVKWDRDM
Chain of recombinant human FcγRIIIA (CD16a) V176 (P08637 17-208 F176V): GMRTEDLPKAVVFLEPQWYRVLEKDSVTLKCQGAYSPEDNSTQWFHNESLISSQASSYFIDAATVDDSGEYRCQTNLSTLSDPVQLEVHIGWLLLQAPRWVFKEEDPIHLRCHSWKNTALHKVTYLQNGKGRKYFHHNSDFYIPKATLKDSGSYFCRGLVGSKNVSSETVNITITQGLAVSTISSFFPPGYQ
T1 sequence (P02745 23-245 limits assumed, chain 1 of 3): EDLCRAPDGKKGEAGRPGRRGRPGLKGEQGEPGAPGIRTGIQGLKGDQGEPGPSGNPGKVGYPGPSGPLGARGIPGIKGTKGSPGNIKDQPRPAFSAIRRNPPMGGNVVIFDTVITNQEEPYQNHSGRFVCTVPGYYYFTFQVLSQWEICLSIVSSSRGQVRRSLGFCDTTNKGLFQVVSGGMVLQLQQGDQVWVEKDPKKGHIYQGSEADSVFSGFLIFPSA
T1 sequence (P02746 28-253 limits assumed, chain 2 of 3): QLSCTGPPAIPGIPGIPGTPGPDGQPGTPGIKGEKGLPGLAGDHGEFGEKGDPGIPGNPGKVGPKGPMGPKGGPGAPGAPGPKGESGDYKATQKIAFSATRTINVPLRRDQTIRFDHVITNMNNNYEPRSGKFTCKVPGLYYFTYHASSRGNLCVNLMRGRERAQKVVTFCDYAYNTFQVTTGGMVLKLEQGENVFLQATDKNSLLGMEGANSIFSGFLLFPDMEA
T1 sequence (P02747 29-245 limits assumed, chain 3 of 3): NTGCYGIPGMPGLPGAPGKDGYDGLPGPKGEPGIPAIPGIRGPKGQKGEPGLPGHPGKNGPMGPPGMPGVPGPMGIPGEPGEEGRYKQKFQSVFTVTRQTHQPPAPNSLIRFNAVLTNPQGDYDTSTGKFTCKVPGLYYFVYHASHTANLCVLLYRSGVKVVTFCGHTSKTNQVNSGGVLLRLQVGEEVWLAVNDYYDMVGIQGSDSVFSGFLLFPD

B1: recombinant humanized anti-BTLA monoclonal antibody hu18 (antibody, human IgG4 S228P, kappa)
heavy: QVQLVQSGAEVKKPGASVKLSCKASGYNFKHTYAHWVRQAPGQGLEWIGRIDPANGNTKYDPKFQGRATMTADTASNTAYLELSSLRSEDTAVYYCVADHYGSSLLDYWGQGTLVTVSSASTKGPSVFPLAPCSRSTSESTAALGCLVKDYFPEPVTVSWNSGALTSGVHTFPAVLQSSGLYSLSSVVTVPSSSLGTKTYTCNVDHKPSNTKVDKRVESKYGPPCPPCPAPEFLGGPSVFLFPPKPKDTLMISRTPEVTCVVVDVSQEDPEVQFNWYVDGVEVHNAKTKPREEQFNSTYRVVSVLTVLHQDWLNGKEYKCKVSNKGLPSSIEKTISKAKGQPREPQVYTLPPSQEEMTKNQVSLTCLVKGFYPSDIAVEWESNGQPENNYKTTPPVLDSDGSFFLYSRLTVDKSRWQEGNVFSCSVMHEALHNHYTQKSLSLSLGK
light: DVVMTQTPLSLSVTPGQPASISCKSSQSLLDSDGKTYLNWFQQRPGQSPRRLIYLVSKLDSGVPDRFSGSGSGTDFTLKISRVEAEDVGVYYCWQGTYFPYTFGQGTKLEIKRTVAAPSVFIFPPSDEQLKSGTASVVCLLNNFYPREAKVQWKVDNALQSGNSQESVTEQDSKDSTYSLSSTLTLSKADYEKHKVYACEVTHQGLSSPVTKSFNRGEC
notes: also called recombinant human anti-BTLA antibody of the IgG4 subtype
As for B1, in the test with hBTLA expressed on cells, the “EC50 (ng/mL); NFAT-luciferase luminescence of Jurkat hPD-1/hBTLA report cells co-cultured with CHO cells expressing hPD-L1/hHVEM” value (“EC50 (ng/mL)” below) is 277 ng/mL. Further, the binding result in the test with human C1q is “no binding”. The Kd in test [1] turned out to be 40.6 µM. Besides, in test [2], the Kd turned out to be 0.0184 µM, the koff worked out at 0.00387 s⁻¹ and the kon was found to be 210000 M⁻¹ s⁻¹. For the same molecule, in test [3], the Kd is 60.2 µM and the “fold weaker interaction than the control antibody of the IgG1 subtype (hu18-IgG1)” value amounted to 400 fold. Besides, in the test with recombinant human FcRn, the Kd worked out at 0.138 µM, the koff worked out at 0.0708 s⁻¹ and the kon turned out to be 512000 M⁻¹ s⁻¹.

B2: humanized anti-BTLA antibody hu17 (antibody, V domains shown)
VH: QVQLVQSGAEVKKPGASVKLSCKASGYNFKHTYAHWVRQAPGQGLEWIGRIDPANGNTKYDPKFQGRATMTADTASNTAYLELSSLRSEDTAVYYCVADHYGSSLLDYWGQGTLVTVSS
VL: DIVMTQTPLSLSVTPGQPASISCKSSQSLLDSDGKTYLNWFQQRPGQSPRRLIYLVSKLDSGVPDRFSGSGSGTDFTLKISRVEAEDVGVYYCWQGTYFPYTFGQGTKLEIK
notes: Called a full humanized antibody; also called hul7; hull
For the molecule B2, the “EC50 (ng/mL)” value with hBTLA expressed on cells came out at 257 ng/mL. Also, in the test with murine BTLA, the binding result was “no binding (tested: 1000 ng/mL (log 3))”.

B3: humanized anti-BTLA antibody hu19 (antibody, V domains shown)
VH: B2 VH
VL: B2 VL with I53M, Y54H
Consider B3, for which, in the test with hBTLA expressed on cells, the “EC50 (ng/mL)” value came out at 290 ng/mL.

The Kd is the free concentration of one partner at which half of the binding sites on the other are occupied at equilibrium, for simple one-to-one binding. What is called koff is a measure of how fast the partners let go of each other. By kon is commonly meant the rate constant with which the complex forms.

The values are drawn from patent US20230192854A1 (SHANGHAI JUNSHI BIOSCIENCES, published 2023).
